{
  "source": "patent US5609876",
  "about": "“Peptide vaccines and associated methods for protection against feline leukemia virus” (University of Pittsburgh of the Commonwealth System of …, dated 1997)",
  "target": "T1, PRN4358 (feline leukemia virus (FeLV 61-E gp70))",
  "T1 peptide": "VAPTTVGPKRIGTGDR-NH2",
  "assay": "1H-NMR of an equimolar (5 mM) mixture of PRN42 and PRN4358, amide proton protection in D2O",
  "note": "No end group written: not given here.",
  "data": [
    {"binder": "TPPQAMGPNLVLPDQKPPSRQSQTGSKVATQRPQTNESAPRS-NH2", "note": "[PRN42]", "values": [
      {"measurement": "binding result", "result": "binds"}
    ]}
  ]
}
